Measured values: patent US6727407

Legend:
His-tagged CKB1, P40228 = target: T1, His-tagged CKB1, P40228
T1 chain: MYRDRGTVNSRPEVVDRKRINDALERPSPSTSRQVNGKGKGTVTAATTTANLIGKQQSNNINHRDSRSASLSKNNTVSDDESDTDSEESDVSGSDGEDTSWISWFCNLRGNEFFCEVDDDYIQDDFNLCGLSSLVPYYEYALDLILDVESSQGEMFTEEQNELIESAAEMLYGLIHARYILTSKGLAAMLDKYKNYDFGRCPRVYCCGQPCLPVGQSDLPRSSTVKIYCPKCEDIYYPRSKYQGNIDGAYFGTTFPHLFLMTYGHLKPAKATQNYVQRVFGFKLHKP

[1] = target: glutathione-S-transferase (GST) [GST: P08515]
His-tagged CKB3 = target: T2, His-tagged CKB3
T2 chain: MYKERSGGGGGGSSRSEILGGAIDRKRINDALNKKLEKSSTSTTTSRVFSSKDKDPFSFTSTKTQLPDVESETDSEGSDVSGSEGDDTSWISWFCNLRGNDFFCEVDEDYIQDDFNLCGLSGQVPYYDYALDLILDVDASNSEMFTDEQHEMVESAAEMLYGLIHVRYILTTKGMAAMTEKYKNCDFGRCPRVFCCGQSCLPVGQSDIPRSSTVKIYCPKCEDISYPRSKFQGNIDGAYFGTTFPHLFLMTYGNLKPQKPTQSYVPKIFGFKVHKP

GST-LHY, Q6R0H1 = target: T3, GST-LHY, Q6R0H1
T3 chain: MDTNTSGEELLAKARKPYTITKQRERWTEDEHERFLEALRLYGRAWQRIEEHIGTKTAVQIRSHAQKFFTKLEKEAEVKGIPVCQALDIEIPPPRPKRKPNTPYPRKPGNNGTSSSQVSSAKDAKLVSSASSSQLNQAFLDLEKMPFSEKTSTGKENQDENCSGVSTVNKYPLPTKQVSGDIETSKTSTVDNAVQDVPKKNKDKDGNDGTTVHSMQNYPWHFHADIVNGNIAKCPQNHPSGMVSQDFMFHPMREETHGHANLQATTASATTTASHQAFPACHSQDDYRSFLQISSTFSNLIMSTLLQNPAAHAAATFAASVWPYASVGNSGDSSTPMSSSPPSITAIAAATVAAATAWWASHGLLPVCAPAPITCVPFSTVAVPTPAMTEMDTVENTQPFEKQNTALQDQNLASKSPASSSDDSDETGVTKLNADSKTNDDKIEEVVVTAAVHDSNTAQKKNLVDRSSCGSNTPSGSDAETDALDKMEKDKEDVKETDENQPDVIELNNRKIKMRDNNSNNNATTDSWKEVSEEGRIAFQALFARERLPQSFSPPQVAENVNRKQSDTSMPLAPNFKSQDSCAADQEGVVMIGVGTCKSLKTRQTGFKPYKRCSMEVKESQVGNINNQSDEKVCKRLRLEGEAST

Chain of glutathione-S-transferase (GST) [GST: P08515] (P08515 whole entry): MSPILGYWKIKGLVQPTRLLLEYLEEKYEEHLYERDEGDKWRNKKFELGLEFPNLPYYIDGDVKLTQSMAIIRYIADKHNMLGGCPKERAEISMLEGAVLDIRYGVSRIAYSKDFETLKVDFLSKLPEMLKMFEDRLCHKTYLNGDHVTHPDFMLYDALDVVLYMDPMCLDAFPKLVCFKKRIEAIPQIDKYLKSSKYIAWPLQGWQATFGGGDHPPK
Chain of GST-CCA1, P92973 (P92973 whole entry): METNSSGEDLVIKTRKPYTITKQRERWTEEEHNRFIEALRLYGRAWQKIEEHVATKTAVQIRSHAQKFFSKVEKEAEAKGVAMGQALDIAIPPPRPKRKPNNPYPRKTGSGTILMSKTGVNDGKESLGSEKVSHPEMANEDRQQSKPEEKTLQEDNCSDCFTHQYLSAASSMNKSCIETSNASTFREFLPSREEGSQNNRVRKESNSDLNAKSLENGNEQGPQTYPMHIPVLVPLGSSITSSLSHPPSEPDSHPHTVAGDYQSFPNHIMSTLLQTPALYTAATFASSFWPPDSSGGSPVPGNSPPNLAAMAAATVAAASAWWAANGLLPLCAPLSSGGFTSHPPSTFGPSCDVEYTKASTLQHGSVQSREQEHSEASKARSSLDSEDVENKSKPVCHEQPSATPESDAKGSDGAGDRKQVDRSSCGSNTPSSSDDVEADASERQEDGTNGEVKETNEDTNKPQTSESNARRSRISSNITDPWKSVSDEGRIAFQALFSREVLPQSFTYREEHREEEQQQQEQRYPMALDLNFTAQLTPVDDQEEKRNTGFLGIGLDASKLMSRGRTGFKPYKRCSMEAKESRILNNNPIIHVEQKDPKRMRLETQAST

B1: CKA1 (α-subunit of Arabidopsis protein kinase CK2) (protein)
chain: MSKARVYTEVNVIRPKDYWDYESLIVQWGEQDDYEVVRKVGRGKYSEVFEGINVNSKEKCIIKILKPVKKKKIRREIKILQNLCGGPNIVKLLDVVRDQHSKTPSLIFEYVNSTDFKVLYPTLTDYDIRYYIYELLKALDFCHSQGIMHRDVKPHNVMIDHELRKLRLIDWGLAEFYHPGKEYNVRVASRYFKGPELLVDLQDYDYSLDMWSLGCMFAGMIFRKEPFFYGHDNQDQLVKIAKVLGTDELNAYLNKYQLELDPQLEALVGRHSRKPWSKFINADNQHLVSPEAIDFLDKLLRYDHQDRLTAKEAMAHAYFAQVRAAETSRMRSQ
phosphorylation of GST-CCA1 by 14 ng of CKA1 with 35 ng of β-subunit (His-tagged CKB1, P40228): a strong stimulation of the CCA1 phosphorylation was observed by adding either CKB1 or CKB3 | phosphorylation of GST-LHY by CKA1 with added β-subunit (His-tagged CKB1, P40228): this phosphorylation was enhanced by adding either CKB1 or CKB3 | in vitro phosphorylation with [γ-32P]ATP, SDS-PAGE autoradiography [1]: a large amount of CKA1 (280 ng) phosphorylates GST-CCA1 but not GST | in vitro phosphorylation with [γ-32P]ATP, SDS-PAGE autoradiography (GST-CCA1, P92973): a large amount of CKA1 (280 ng) phosphorylates GST-CCA1 but not GST | phosphorylation of GST-CCA1 by 14 ng of CKA1 with 35 ng of β-subunit (His-tagged CKB3): a strong stimulation of the CCA1 phosphorylation was observed by adding either CKB1 or CKB3 | phosphorylation of GST-LHY by CKA1 with added β-subunit (His-tagged CKB3): this phosphorylation was enhanced by adding either CKB1 or CKB3 | in vitro phosphorylation with [γ-32P]ATP, SDS-PAGE autoradiography (GST-LHY, Q6R0H1): CKA1, the α-subunit of CK2, could phosphorylate LHY
